The results in this text go back to the supplement of paper PMC11246515.

This data set is described as follows: total protein half-life in vivo (active degradation + dilution); higher = more stable protein.
The mark [1] stands for this setting: wild type E. coli NCM3722, growth: C-lim chemostat, doubling time 3 h.
[2] abbreviates: wild type E. coli NCM3722, growth: C-lim chemostat, doubling time 6 h.
Setting [3] is: wild type E. coli NCM3722, growth: C-lim chemostat, doubling time 12 h.
[4] abbreviates: E. coli NCM3722 delta-clpP delta-lon delta-hslV, growth: N-lim chemostat, doubling time 6 h.
Setting [5] is: E. coli NCM3722 delta-clpP, growth: N-lim chemostat, doubling time 6 h.
Where [6] appears, read: E. coli NCM3722 delta-hslV, growth: N-lim chemostat, doubling time 6 h.
Setting [7] is: E. coli NCM3722 delta-lon, growth: N-lim chemostat, doubling time 6 h.
Where [8] appears, read: E. coli NCM3722 delta-smpB, growth: N-lim chemostat, doubling time 6 h.
Setting [9] is: wild type E. coli NCM3722, growth: N-lim chemostat, doubling time 6 h.
Where [10] appears, read: wild type E. coli NCM3722, growth: N-lim chemostat, doubling time 12 h.
Setting [11] is: wild type E. coli NCM3722, growth: P-lim chemostat, doubling time 6 h.
Where [12] appears, read: wild type E. coli NCM3722, growth: P-lim chemostat, doubling time 12 h.

± gives the standard deviation of the averaged measurements.

“MSSVSTSGSGAPKSSFSFGRIWDQYGMLVVFAVLFIACAIFVPNFATFINMKGLGLAISMSGMVACGMLFCLASGDFDLSVASVIACAGVTTAVVINLTESLWIGVAAGLLLGVLCGLVNGFVIAKLKINALITTLATMQIVRGLAYIISDGKAVGIEDESFFALGYANWFGLPAPIWLTVACLIIFGLLLNKTTFGRNTLAIGGNEEAARLAGVPVVRTKIIIFVLSGLVSAIAGIILASRMTSGQPMTSIGYELIVISACVLGGVSLKGGIGKISYVVAGILILGTVENAMNLLNISPFAQYVVRGLILLAAVIFDRYKQKAKRTV [P0AE26]”: the “total protein half-life in vivo” value is, setting by setting: under setting [1], 2.54 ± 0.33 h; under setting [2], 4.04 ± 0.19 h; under setting [3], 7.44 ± 0.65 h.

On to “MATGTQPDAGQILNSLINSILLIDDNLAIHYANPAAQQLLAQSSRKLFGTPLPELLSYFSLNIELMQESLEAGQGFTDNEVTLVIDGRSHILSVTAQRMPDGMILLEMAPMDNQRRLSQEQLQHAQQVAARDLVRGLAHEIKNPLGGLRGAAQLLSKALPDPSLLEYTKVIIEQADRLRNLVDRLLGPQLPGTRVTESIHKVAERVVTLVSMELPDNVRLIRDYDPSLPELAHDPDQIEQVLLNIVRNALQALGPEGGEIILRTRTAFQLTLHGERYRLAARIDVEDNGPGIPPHLQDTLFYPMVSGREGGTGLGLSIARNLIDQHSGKIEFTSWPGHTEFSVYLPIRK [P0AFB5]”, for which the “total protein half-life in vivo” value under setting [4] came to 5.25 ± 0.15 h; the “total protein half-life in vivo” value under setting [5] came out at 5.41 ± 0.72 h; the “total protein half-life in vivo” value under setting [6] worked out at 5.19 ± 0.57 h; the “total protein half-life in vivo” value under setting [7] amounted to 4.938 ± 0.023 h; the “total protein half-life in vivo” value under setting [8] is 4.73 ± 0.11 h; the “total protein half-life in vivo” value under setting [1] stood at 3.11 ± 0.38 h. The “total protein half-life in vivo” value was 5.27 ± 0.073 h under setting [2]; 9.99 ± 1.6 h under setting [3]; 4.48 ± 0.38 h under setting [9]; 8.26 ± 1 h under setting [10]; 7.12 ± 0.5 h under setting [11]; 11.2 ± 2.2 h under setting [12].

For “MSQTIDLTLDGLSCGHCVKRVKESLEQRPDVEQADVSITEAHVTGTASAEQLIETIKQAGYDASVSHPKAKPLAESSIPSEALTAVSEALPAATADDDDSQQLLLSGMSCASCVTRVQNALQSVPGVTQARVNLAERTALVMGSASPQDLVQAVEKAGYGAEAIEDDAKRRERQQETAVATMKRFRWQAIVALAVGIPVMVWGMIGDNMMVTADNRSLWLVIGLITLAVMVFAGGHFYRSAWKSLLNGAATMDTLVALGTGVAWLYSMSVNLWPQWFPMEARHLYYEASAMIIGLINLGHMLEARARQRSSKALEKLLDLTPPTARLVTDEGEKSVPLAEVQPGMLLRLTTGDRVPVDGEITQGEAWLDEAMLTGEPIPQQKGEGDSVHAGTVVQDGSVLFRASAVGSHTTLSRIIRMVRQAQSSKPEIGQLADKISAVFVPVVVVIALVSAAIWYFFGPAPQIVYTLVIATTVLIIACPCALGLATPMSIISGVGRAAEFGVLVRDADALQRASTLDTVVFDKTGTLTEGKPQVVAVKTFADVDEAQALRLAAALEQGSSHPLARAILDKAGDMQLPQVNGFRTLRGLGVSGEAEGHALLLGNQALLNEQQVGTKAIEAEITAQASQGATPVLLAVDGKAVALLAVRDPLRSDSVAALQRLHKAGYRLVMLTGDNPTTANAIAKEAGIDEVIAGVLPDGKAEAIKHLQSEGRQVAMVGDGINDAPALAQADVGIAMGGGSDVAIETAAITLMRHSLMGVADALAISRATLHNMKQNLLGAFIYNSIGIPVAAGILWPFTGTLLNPVVAGAAMALSSITVVSNANRLLRFKPKE”, the “total protein half-life in vivo” value is, setting by setting: under setting [4], 5.76 ± 0.52 h; under setting [5], 5.33 ± 0.2 h; under setting [6], 5.194 ± 0.042 h; under setting [7], 5.433 ± 0.023 h; under setting [8], 5.23 ± 0.55 h; under setting [1], 2.89 ± 0.21 h. The “total protein half-life in vivo” value by setting is: under setting [2], 5.07 ± 0.085 h; under setting [3], 9.5 ± 0.77 h; under setting [9], 5.26 ± 0.34 h; under setting [10], 9.52 ± 0.35 h; under setting [11], 5.33 ± 0.32 h; under setting [12], 9.65 ± 0.45 h.

Turning to “MVLQSTRWLALGYFTYFFSYGIFLPFWSVWLKGIGLTPETIGLLLGAGLVARFLGSLLIAPRVSDPSRLISALRVLALLTLLFAVAFWAGAHVAWLMLVMIGFNLFFSPLVPLTDALANTWQKQFPLDYGKVRLWGSVAFVIGSALTGKLVTMFDYRVILALLTLGVASMLLGFLIRPTIQPQGASRQQESTGWSAWLALVRQNWRFLACVCLLQGAHAAYYGFSAIYWQAAGYSASAVGYLWSLGVVAEVIIFALSNKLFRRCSARDMLLISAICGVVRWGIMGATTALPWLIVVQILHCGTFTVCHLAAMRYIAARQGSEVIRLQAVYSAVAMGGSIAIMTVFAGFLYQYLGHGVFWVMALVALPAMFLRPKVVPSC”, the “total protein half-life in vivo” value reads like this: under setting [7], 6.67 h; under setting [8], 4.51 h; under setting [2], 2.77 h; under setting [3], 10.4 ± 0.17 h.

Take “MHLRHLFSSRLRGSLLLGSLLVVSSFSTQAAEEMLRKAVGKGAYEMAYSQQENALWLATSQSRKLDKGGVVYRLDPVTLEVTQAIHNDLKPFGATINNTTQTLWFGNTVNSAVTAIDAKTGEVKGRLVLDDRKRTEEVRPLQPRELVADDATNTVYISGIGKESVIWVVDGGNIKLKTAIQNTGKMSTGLALDSEGKRLYTTNADGELITIDTADNKILSRKKLLDDGKEHFFINISLDTARQRAFITDSKAAEVLVVDTRNGNILAKVAAPESLAVLFNPARNEAYVTHRQAGKVSVIDAKSYKVVKTFDTPTHPNSLALSADGKTLYVSVKQKSTKQQEATQPDDVIRIAL”: the “total protein half-life in vivo” value is, setting by setting: under setting [4], 5.6 ± 0.52 h; under setting [5], 5.877 ± 0.042 h; under setting [6], 5.99 ± 0.71 h; under setting [7], 5.44 ± 0.31 h; under setting [8], 5.53 ± 0.97 h; under setting [1], 3.14 ± 0.065 h. In addition, the “total protein half-life in vivo” value reads like this: under setting [2], 6.05 ± 0.6 h; under setting [3], 12.2 ± 1.1 h; under setting [9], 5.63 ± 0.093 h; under setting [10], 11.5 ± 1.1 h; under setting [11], 5.44 ± 0.17 h; under setting [12], 11.4 ± 0.18 h.

For “MPKSVIIPAGSSAPLAPFVPGTLADGVVYVSGTLAFDQHNNVLFADDPKAQTRHVLETIRKVIETAGGTMADVTFNSIFITDWKNYAAINEIYAEFFPGDKPARFCIQCGLVKPDALVEIATIAHIAK [P0AFQ5]”, the “total protein half-life in vivo” value under setting [8] was 3.86 h.

“MTNRLVLSGTVCRAPLRKVSPSGIPHCQFVLEHRSVQEEAGFHRQAWCQMPVIVSGHENQAITHSITVGSRITVQGFISCHKAKNGLSKMVLHAEQIELIDSGD”: the “total protein half-life in vivo” value turned out to be 4.72 h under setting [8], 2.97 h under setting [1], 5.76 h under setting [9] and 15.6 h under setting [12].

Turning to “MLQSNEYFSGKVKSIGFSSSSTGRASVGVMVEGEYTFSTAEPEEMTVISGALNVLLPDATDWQVYEAGSVFNVPGHSEFHLQVAEPTSYLCRYL [P0C037]”, the “total protein half-life in vivo” value reads like this: under setting [4], 5.23 ± 0.64 h; under setting [5], 3.8 ± 0.061 h; under setting [6], 3.59 ± 0.28 h; under setting [7], 4.706 ± 0.03 h; under setting [8], 3.46 ± 0.4 h; under setting [1], 2.75 ± 0.14 h. Moreover, the “total protein half-life in vivo” value turned out to be 5.02 ± 0.079 h under setting [2]; 9.73 ± 2.5 h under setting [3]; 3.78 ± 0.38 h under setting [9]; 5.6 h under setting [10]; 4.25 ± 0.35 h under setting [11]; 6.87 ± 0.11 h under setting [12].

For “MVKERKTELVEGFRHSVPYINTHRGKTFVIMLGGEAIEHENFSSIVNDIGLLHSLGIRLVVVYGARPQIDANLAAHHHEPLYHKNIRVTDAKTLELVKQAAGTLQLDITARLSMSLNNTPLQGAHINVVSGNFIIAQPLGVDDGVDYCHSGRIRRIDEDAIHRQLDSGAIVLMGPVAVSVTGESFNLTSEEIATQLAIKLKAEKMIGFCSSQGVTNDDGDIVSELFPNEAQARVEAQEEKGDYNSGTVRFLRGAVKACRSGVRRCHLISYQEDGALLQELFSRDGIGTQIVMESAEQIRRATINDIGGILELIRPLEQQGILVRRSREQLEMEIDKFTIIQRDNTTIACAALYPFPEEKIGEMACVAVHPDYRSSSRGEVLLERIAAQAKQSGLSKLFVLTTRSIHWFQERGFTPVDIDLLPESKKQLYNYQRKSKVLMADLG [P0A6C5]”, the “total protein half-life in vivo” value amounted to 4.95 ± 0.5 h under setting [4]; 3.02 ± 0.23 h under setting [5]; 2.23 ± 0.15 h under setting [6]; 3.628 ± 0.028 h under setting [7]; 1.13 ± 0.066 h under setting [8]; 1.99 ± 0.036 h under setting [1]. Further, the “total protein half-life in vivo” value worked out at 3.29 ± 0.41 h under setting [2]; 5.24 ± 0.21 h under setting [3]; 2.59 ± 0.25 h under setting [9]; 4.01 ± 0.54 h under setting [10]; 4.56 ± 0.38 h under setting [11]; 8.35 ± 0.32 h under setting [12].
